The source of these data is the supplement of paper PMC11246515.

The data set in a line: total protein half-life in vivo (active degradation + dilution); higher = more stable protein.
Where [1] appears, read: E. coli NCM3722 delta-clpP delta-lon delta-hslV, growth: N-lim chemostat, doubling time 6 h.
[2] abbreviates: E. coli NCM3722 delta-clpP, growth: N-lim chemostat, doubling time 6 h.
The mark [3] stands for this setting: E. coli NCM3722 delta-hslV, growth: N-lim chemostat, doubling time 6 h.
The mark [4] stands for this setting: E. coli NCM3722 delta-lon, growth: N-lim chemostat, doubling time 6 h.
[5] abbreviates: E. coli NCM3722 delta-smpB, growth: N-lim chemostat, doubling time 6 h.
Where [6] appears, read: wild type E. coli NCM3722, growth: C-lim chemostat, doubling time 3 h.
Where [7] appears, read: wild type E. coli NCM3722, growth: C-lim chemostat, doubling time 6 h.
[8] abbreviates: wild type E. coli NCM3722, growth: C-lim chemostat, doubling time 12 h.
Setting [9] is: wild type E. coli NCM3722, growth: N-lim chemostat, doubling time 6 h.
[10] abbreviates: wild type E. coli NCM3722, growth: N-lim chemostat, doubling time 12 h.
[11] abbreviates: wild type E. coli NCM3722, growth: P-lim chemostat, doubling time 6 h.
[12] abbreviates: wild type E. coli NCM3722, growth: P-lim chemostat, doubling time 12 h.

± gives the standard deviation of the averaged measurements.

In the case of “MAMVEMQTTAALAESRRKMQARRRLKNRIALTLSMATMAFGLFWLIWILMSTITRGIDGMSLALFTEMTPPPNTEGGGLANALAGSGLLILWATVFGTPLGIMAGIYLAEYGRKSWLAEVIRFINDILLSAPSIVVGLFVYTIVVAQMEHFSGWAGVIALALLQVPIVIRTTENMLKLVPYSLREAAYALGTPKWKMISAITLKASVSGIMTGILLAIARIAGETAPLLFTALSNQFWSTDMMQPIANLPVTIFKFAMSPFAEWQQLAWAGVLIITLCVLLLNILARVVFAKNKHG”, the “total protein half-life in vivo” value was 6.78 ± 1.7 h under setting [1]; 5.74 ± 0.15 h under setting [2]; more than 8 h under setting [3]; 4.84 h under setting [4]; 4.97 ± 0.05 h under setting [5]; 3.37 h under setting [6]. The “total protein half-life in vivo” value is, setting by setting: under setting [7], 5.11 ± 0.51 h; under setting [8], 12.1 ± 1.3 h; under setting [9], 5.15 ± 0.12 h; under setting [10], 10.6 ± 2 h; under setting [11], 4.95 ± 0.35 h; under setting [12], 9.13 ± 0.56 h.
Regarding “MYTQTLYELSQEAERLLQLSRQQLQLLEKMPLSVPGDDAPQLALPWSQPNIAERHAMLNNELRKISRLEMVLAIVGTMKAGKSTTINAIVGTEVLPNRNRPMTALPTLIRHTPGQKEPVLHFSHVAPIDCLIQQLQQRLRDCDIKHLTDVLEIDKDMRALMQRIENGVAFEKYYLGAQPIFHCLKSLNDLVRLAKALDVDFPFSAYAAIEHIPVIEVEFVHLAGLESYPGQLTLLDTPGPNEAGQPHLQKMLNQQLARASAVLAVLDYTQLKSISDEEVREAILAVGQSVPLYVLVNKFDQQDRNSDDADQVRALISGTLMKGCITPQQIFPVSSMWGYLANRARYELANNGKLPPPEQQRWVEDFAHAALGRRWRHADLADLEHIRHAADQLWEDSLFAQPIQALLHAAYANASLYALRSAAHKLLNYAQQAREYLDFRAHGLNVACEQLRQNIHQIEESLQLLQLNQAQVSGEIKHEIELALTSANHFLRQQQDALKVQLAALFQDDSEPLSEIRTRCETLLQTAQNTISRDFTLRFAELESTLCRVLTDVIRPIEQQVKMELSESGFRPGFHFPVFHGVVPHFNTRQLFSEVISRQEATDEQSTRLGVVRETFSRWLNQPDWGRGNEKSPTETVDYSVLQRALSAEVDLYCQQMAKVLAEQVDESVTAGMNTFFAEFASCLTELQTRLRESLALRQQNESVVRLMQQQLQQTVMTHGWIYTDAQLLRDDIQTLFTAERY [P0DM85]”, the “total protein half-life in vivo” value under setting [6] came out at 2.44 ± 0.21 h, the “total protein half-life in vivo” value under setting [8] worked out at 5.52 ± 1.4 h, the “total protein half-life in vivo” value under setting [11] amounted to 3.43 ± 0.63 h and the “total protein half-life in vivo” value under setting [12] was 6.3 ± 0.69 h.
“MKSPAPSRPQKMALIPACIFLCFAALSVQAEETPVTPQPPDILLGPLFNDVQNAKLFPDQKTFADAVPNSDPLMILADYRMQQNQSGFDLRHFVNVNFTLPKEGEKYVPPEGQSLREHIDGLWPVLTRSTENTEKWDSLLPLPEPYVVPGGRFREVYYWDSYFTMLGLAESGHWDKVADMVANFAHEIDTYGHIPNGNRSYYLSRSQPPFFALMVELLAQHEGDAALKQYLPQMQKEYAYWMDGVENLQAGQQEKRVVKLQDGTLLNRYWDDRDTPRPESWVEDIATAKSNPNRPATEIYRDLRSAAASGWDFSSRWMDNPQQLNTLRTTSIVPVDLNSLMFKMEKILARASKAAGDNAMANQYETLANARQKGIEKYLWNDQQGWYADYDLKSHKVRNQLTAAALFPLYVNAAAKDRANKMATATKTHLLQPGGLNTTSVKSGQQWDAPNGWAPLQWVATEGLQNYGQKEVAMDISWHFLTNVQHTYDREKKLVEKYDVSTTGTGGGGGEYPLQDGFGWTNGVTLKMLDLICPKEQPCDNVPATRPTVKSATTQPSTKEAQPTP”: the “total protein half-life in vivo” value is 6.13 ± 0.28 h under setting [1]; 7.29 ± 0.5 h under setting [3]; 6.16 ± 0.95 h under setting [4]; 5.94 ± 0.87 h under setting [5]; 3.51 ± 0.67 h under setting [6]; 6.59 ± 0.25 h under setting [7]. Further, the “total protein half-life in vivo” value reads like this: under setting [8], 11.2 ± 0.94 h; under setting [9], 6.28 ± 0.098 h; under setting [10], 14.4 ± 0.85 h; under setting [12], 14.4 ± 1.6 h.
On to “MTTPLKKIVIVGGGAGGLEMATQLGHKLGRKKKAKITLVDRNHSHLWKPLLHEVATGSLDEGVDALSYLAHARNHGFQFQLGSVIDIDREAKTITIAELRDEKGELLVPERKIAYDTLVMALGSTSNDFNTPGVKENCIFLDNPHQARRFHQEMLNLFLKYSANLGANGKVNIAIVGGGATGVELSAELHNAVKQLHSYGYKGLTNEALNVTLVEAGERILPALPPRISAAAHNELTKLGVRVLTQTMVTSADEGGLHTKDGEYIEADLMVWAAGIKAPDFLKDIGGLETNRINQLVVEPTLQTTRDPDIYAIGDCASCPRPEGGFVPPRAQAAHQMATCAMNNILAQMNGKPLKNYQYKDHGSLVSLSNFSTVGSLMGNLTRGSMMIEGRIARFVYISLYRMHQIALHGYFKTGLMMLVGSINRVIRPRLKLH”, for which the “total protein half-life in vivo” value is 6.51 ± 0.53 h under setting [1]; 6.87 ± 1.2 h under setting [2]; 6.08 ± 0.085 h under setting [3]; 6.332 ± 0.062 h under setting [4]; 5.82 ± 0.36 h under setting [5]; 3.15 ± 0.057 h under setting [6]. Further, the “total protein half-life in vivo” value worked out at 11.78 ± 0.097 h under setting [8]; 6.12 ± 0.28 h under setting [9]; 12.7 ± 0.44 h under setting [10]; 6.07 ± 0.096 h under setting [11]; 14.2 ± 0.38 h under setting [12].
On to “MAVEVKYVVIREGEEKMSFTSKKEADAYDKMLDTADLLDTWLTNSPVQMEDEQREALSLWLAEQKDVLSTILKTGKLPSPQVVGAESEEEDASHAA [P0ACY9]”, for which the “total protein half-life in vivo” value under setting [1] came out at 5.68 ± 0.58 h; the “total protein half-life in vivo” value under setting [3] amounted to 0.932 ± 0.076 h; the “total protein half-life in vivo” value under setting [4] came to 0.8842 ± 0.0032 h; the “total protein half-life in vivo” value under setting [5] worked out at 2.19 ± 0.32 h; the “total protein half-life in vivo” value under setting [6] is 0.978 ± 0.016 h; the “total protein half-life in vivo” value under setting [7] turned out to be 1.17 ± 0.072 h. For the same sequence, the “total protein half-life in vivo” value was found to be 1.28 h under setting [8]; 1.08 h under setting [9]; 1.8 ± 0.069 h under setting [10]; 0.976 ± 0.2 h under setting [11]; 2.4 h under setting [12].
Turning to “MAKERALTLEALRVMDAIDRRGSFAAAADELGRVPSALSYTMQKLEEELDVVLFDRSGHRTKFTNVGRMLLERGRVLLEAADKLTTDAEALARGWETHLTIVTEALVPTPAFFPLIDKLAAKANTQLAIITEVLAGAWERLEQGRADIVIAPDMHFRSSSEINSRKLYTLMNVYVAAPDHPIHQEPEPLSEVTRVKYRGIAVADTARERPVLTVQLLDKQPRLTVSTIEDKRQALLAGLGVATMPYPMVEKDIAEGRLRVVSPESTSEIDIIMAWRRDSMGEAKSWCLREIPKLFNGK”, the “total protein half-life in vivo” value by setting is: under setting [1], 5.43 ± 0.44 h; under setting [2], 5.71 ± 0.84 h; under setting [3], 5.26 ± 0.14 h; under setting [4], 5.85 ± 0.25 h; under setting [5], 5.34 ± 0.25 h; under setting [6], 3.01 ± 0.2 h. Further, the “total protein half-life in vivo” value is, setting by setting: under setting [7], 5.658 ± 0.043 h; under setting [8], 11.2 ± 0.74 h; under setting [9], 5.54 ± 0.4 h; under setting [10], 10.9 ± 0.25 h; under setting [11], 6.09 ± 0.32 h; under setting [12], 11.5 ± 0.97 h.
With “MSVKVIVTDMDGTFLNDAKTYNQPRFMAQYQELKKRGIKFVVASGNQYYQLISFFPELKDEISFVAENGALVYEHGKQLFHGELTRHESRIVIGELLKDKQLNFVACGLQSAYVSENAPEAFVALMAKHYHRLKPVKDYQEIDDVLFKFSLNLPDEQIPLVIDKLHVALDGIMKPVTSGFGFIDLIIPGLHKANGISRLLKRWDLSPQNVVAIGDSGNDAEMLKMARYSFAMGNAAENIKQIARYATDDNNHEGALNVIQAVLDNTSPFNS”, the “total protein half-life in vivo” value by setting is: under setting [1], 5.01 ± 0.82 h; under setting [2], 4.02 ± 0.23 h; under setting [3], 4.38 ± 0.48 h; under setting [4], 4.38 ± 0.34 h; under setting [5], 3.98 ± 0.12 h; under setting [6], 3.71 ± 0.2 h. The “total protein half-life in vivo” value under setting [8] came out at 12.38 ± 0.075 h, the “total protein half-life in vivo” value under setting [9] came to 4.31 ± 0.45 h, the “total protein half-life in vivo” value under setting [10] was found to be 6.96 ± 0.49 h and the “total protein half-life in vivo” value under setting [11] worked out at 6.13 ± 0.23 h.
